According to patent publication US20230132049A1 (Genmab, published 2023):
Read-outs that look alike come from different tables or passages of the source.

How the values were obtained:
[1] = biological target: T1, rhesus monkey (Macaca mulatta) CD30 (rhesus monkey, UniProt P28908 19-595 (human entry)); assay: flow cytometry on Expi293F cells transfected with rhesus monkey CD30
T1 construct: Full-length construct expressed in Expi293F cells; also called mmCD30
T1 chain: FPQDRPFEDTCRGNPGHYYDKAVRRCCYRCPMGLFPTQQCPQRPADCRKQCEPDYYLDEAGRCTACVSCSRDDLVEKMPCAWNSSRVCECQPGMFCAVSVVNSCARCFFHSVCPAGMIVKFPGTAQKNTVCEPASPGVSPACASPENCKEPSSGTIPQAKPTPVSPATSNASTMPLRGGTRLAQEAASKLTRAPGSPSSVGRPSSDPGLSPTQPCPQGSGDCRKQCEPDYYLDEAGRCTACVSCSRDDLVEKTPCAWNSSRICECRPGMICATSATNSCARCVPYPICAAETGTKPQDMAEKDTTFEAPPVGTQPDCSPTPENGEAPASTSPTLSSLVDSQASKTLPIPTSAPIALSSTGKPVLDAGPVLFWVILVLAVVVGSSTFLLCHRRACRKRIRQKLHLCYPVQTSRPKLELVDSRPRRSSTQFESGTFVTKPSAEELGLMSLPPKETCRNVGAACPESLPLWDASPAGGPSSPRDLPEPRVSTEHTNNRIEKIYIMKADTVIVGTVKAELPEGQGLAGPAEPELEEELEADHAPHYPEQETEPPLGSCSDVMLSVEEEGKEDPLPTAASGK

[2] = biological target: T2, human CD30 (human, UniProt P28908 19-595); assay: cell-based or functional assay
T2 sequence: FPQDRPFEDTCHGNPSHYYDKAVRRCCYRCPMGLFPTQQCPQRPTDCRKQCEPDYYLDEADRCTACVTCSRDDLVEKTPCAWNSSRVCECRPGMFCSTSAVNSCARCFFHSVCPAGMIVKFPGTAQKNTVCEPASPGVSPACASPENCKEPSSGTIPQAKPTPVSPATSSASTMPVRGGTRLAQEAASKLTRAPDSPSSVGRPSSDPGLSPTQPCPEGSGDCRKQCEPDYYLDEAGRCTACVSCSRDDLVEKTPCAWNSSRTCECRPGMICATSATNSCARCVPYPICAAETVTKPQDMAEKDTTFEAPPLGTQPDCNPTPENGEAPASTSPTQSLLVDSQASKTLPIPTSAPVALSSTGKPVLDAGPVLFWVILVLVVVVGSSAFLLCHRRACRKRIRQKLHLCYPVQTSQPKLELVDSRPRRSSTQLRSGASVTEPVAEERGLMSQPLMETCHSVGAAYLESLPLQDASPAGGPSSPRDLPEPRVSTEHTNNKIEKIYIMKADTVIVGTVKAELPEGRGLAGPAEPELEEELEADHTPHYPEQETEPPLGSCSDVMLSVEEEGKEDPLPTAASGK

[3] = biological target: T1, rhesus monkey (Macaca mulatta) CD30; assay: flow cytometry on Expi293F cells transfected with rhesus monkey CD30
[4] = biological target: T2, human CD30; assay: flow cytometry on SU-DHL-1 cells
Protocol: Binding of CD3×CD30 bispecific antibodies to two CD30-expressing human tumor cell lines SU-DHL-1 (ALCL; ATCC, cat. no. ACC 356) and HDLM-2 (HL; ATCC, cat. no. CRL-2965) was analyzed by flow cytometry.
(§1) Cells (3×10⁴ cells/well) were incubated in polystyrene 96-well round-bottom plates (Greiner bio-one, cat. no. 650180) with serial dilutions of antibodies (range 0.0046 to 10 μg/mL in 3-fold dilution steps) in 50 μL staining buffer at 4° C. for 30 min. After washing twice in staining buffer, cells were incubated with 50 μL secondary antibody at 4° C. for 30 min. […] Next, cells were washed twice in staining buffer, resuspended in 100 μL staining buffer supplemented with TO-PRO-3 iodide (Thermo Fisher Scientific; cat. no. T3605; 1:8000 dilution) and analyzed on a FACSCelesta flow cytometer (BD Biosciences, USA). Live cells were gated based on FSC/SSC and absence of TOPRO-3 staining. Binding curves were analyzed by non-linear regression of log-transformed data (sigmoidal dose-response with variable slope, four parameters) using GraphPad Prism V7.02 software (GraphPad Software, San Diego, Calif., USA).

[5] = biological target: T1, rhesus monkey (Macaca mulatta) CD30; assay: flow cytometry on Expi293F cells transfected with rhesus monkey CD30
[6] = biological target: T2, human CD30; assay: flow cytometry on NCEB-1 cells
Protocol: as §1

[7] = biological target: T2, human CD30; assay: flow cytometry on DEL cells
[8] = biological target: T2, human CD30; assay: flow cytometry on Expi293F cells transfected with human CD30
Protocol: Cells (3×10⁴ cells/well) were incubated in polystyrene 96-well round-bottom plates (Thermo Scientific, cat. no. 163320) with serial dilutions of antibodies (ranging from 0.0002 to 50 μg/mL in 4-fold dilution steps) in 50 μL staining buffer at 4° C. for 30 min. Experiments were performed in technical duplicate. After washing twice in staining buffer, cells were incubated in 50 μL secondary antibody at 4° C. for 30 min. […] Cells were washed twice in staining buffer, resuspended in 30 μL staining buffer containing 0.4% EDTA and the ToPro-3 viability marker (Invitrogen, cat. no. T3605) diluted 1:10,000. Cells were analyzed on an iQue Screener (Intellicyt Corporation, USA). Binding curves were analyzed using non-linear regression (sigmoidal dose-response with variable slope) using GraphPad Prism V9.0.0 software (GraphPad Software, San Diego, Calif., USA).

[9] = biological target: T1, rhesus monkey (Macaca mulatta) CD30; assay: flow cytometry on Expi293F cells transfected with rhesus monkey CD30

B1: bsG1-huCD3-FEAL×CD30-HeFi-I-FEAR (bispecific antibody, human IgG1, kappa, lambda)
heavy 1: not shown
light 1: not shown
heavy 2: EVKLVESGGGLVQPGGSLRLSCATSGFTFSDYYMNWVRQPPGKALEWLGFIRNKANGYTTEFSASVMGRFTISRDDSQSILYLQMNTLRAEDSATYYCARDPPYGNPHYYAMDYWGQGTSVTVSSASTKGPSVFPLAPSSKSTSGGTAALGCLVKDYFPEPVTVSWNSGALTSGVHTFPAVLQSSGLYSLSSVVTVPSSSLGTQTYICNVNHKPSNTKVDKRVEPKSCDKTHTCPPCPAPEFEGGPSVFLFPPKPKDTLMISRTPEVTCVVVAVSHEDPEVKFNWYVDGVEVHNAKTKPREEQYNSTYRVVSVLTVLHQDWLNGKEYKCKVSNKALPAPIEKTISKAKGQPREPQVYTLPPSREEMTKNQVSLTCLVKGFYPSDIAVEWESNGQPENNYKTTPPVLDSDGSFFLYSRLTVDKSRWQQGNVFSCSVMHEALHNHYTQKSLSLSPG
light 2: not shown
notes: Bispecific IgG1 by Fab-arm exchange of the two parental antibodies; also called BsIgG1-huCD3-FEAL×CD30-HeFi-I-FEAR
binding result [1]: no binding (tested: 10 µg/mL) | cytotoxicity IC50 (µg/mL) average, Karpas-299 cells [2]: 0.052 µg/mL | cytotoxicity maximum lysis (%) average, Karpas-299 cells [2]: 43%

B2: IgG1-CD30-HeFi-I-FEAR (antibody, V domains shown)
VH: EVKLVESGGGLVQPGGSLRLSCATSGFTFSDYYMNWVRQPPGKALEWLGFIRNKANGYTTEFSASVMGRFTISRDDSQSILYLQMNTLRAEDSATYYCARDPPYGNPHYYAMDYWGQGTSVTVSS
VL: DIVLTQSPASLAVSLGQRATISCRASKSVSASGYNYMHWYQQKAGQPPKLLIHLASNLESGVPARFSGSGSGTDFTLNIHPVEEEDASTYYCQHSGELPFTFGSGTKLEIKR
notes: Monospecific, bivalent parental antibody
binding result [1]: no binding (tested: 10 µg/mL)

B3: bsG1-huCD3-FEAL×CD30-T405-FEAR (bispecific antibody, human IgG1, kappa, lambda)
heavy 1: not shown
light 1: not shown
heavy 2: QVQLQQIGAELVRPGASVKLSCKASGYTFNNYWINWVKQRPGQGLEWIGNIYPSDSRSNYNQKFKDKATLTVDKPSSTAYMQLSSPTSEDSAVYYCTLGSYWGQGTLVTVSAASTKGPSVFPLAPSSKSTSGGTAALGCLVKDYFPEPVTVSWNSGALTSGVHTFPAVLQSSGLYSLSSVVTVPSSSLGTQTYICNVNHKPSNTKVDKRVEPKSCDKTHTCPPCPAPEFEGGPSVFLFPPKPKDTLMISRTPEVTCVVVAVSHEDPEVKFNWYVDGVEVHNAKTKPREEQYNSTYRVVSVLTVLHQDWLNGKEYKCKVSNKALPAPIEKTISKAKGQPREPQVYTLPPSREEMTKNQVSLTCLVKGFYPSDIAVEWESNGQPENNYKTTPPVLDSDGSFFLYSRLTVDKSRWQQGNVFSCSVMHEALHNHYTQKSLSLSPG
light 2: DVVMTQTPLTLSVTIGQPASISCKSSQSLSDSDGKTYLNWLLQRPGQSPKRLIYLVSKLDSGVPDRFTGSGSGTDFTLKISRVEAEDLGVYYCWQGAHFPRTFGGGTKLEIKRTVAAPSVFIFPPSDEQLKSGTASVVCLLNNFYPREAKVQWKVDNALQSGNSQESVTEQDSKDSTYSLSSTLTLSKADYEKHKVYACEVTHQGLSSPVTKSFNRGEC
notes: Bispecific IgG1 by Fab-arm exchange of the two parental antibodies; also called bsIgG1-huCD3-FEAL×CD30-T405-FEAR
binding result [3]: binds | cytotoxicity IC50 (µg/mL) average, Karpas-299 cells [2]: 0.078 µg/mL | cytotoxicity maximum lysis (%) average, Karpas-299 cells [2]: 41.7%

B4: IgG1-CD30-hAC10-FEAR (antibody, V domains shown)
VH: QVQLVQSGAEVKKPGASVKVSCKASGYTFTDYYITWVRQAPGQGLEWMGWIYPGSGNTKYNEKFKGRVTMTRDTSISTAYMELSRLRSDDTAVYYCANYGNYWFAYWGQGTLVTVSS
VL: DIVMTQSPDSLAVSLGERATINCKASQSVDFDGDSYMNWYQQKPGQPPKLLIYAASNLESGVPDRFSGSGSGTDFTLTISSLQAEDVAVYYCQQSNEDPWTFGQGTKVEIKR
notes: as for B2
EC50 (read off the curve) [4]: ~0.05 µg/mL | binding result [5]: binds

B5: IgG1-CD30-MDX060-FERR (antibody)
heavy: QVQLQQWGAGLLKPSETLSLTCAVYGGSFSAYYWSWIRQPPGKGLEWIGDINHGGGTNYNPSLKSRVTISVDTSKNQFSLKLNSVTAADTAVYYCASLTAYWGQGSLVTVSSASTKGPSVFPLAPSSKSTSGGTAALGCLVKDYFPEPVTVSWNSGALTSGVHTFPAVLQSSGLYSLSSVVTVPSSSLGTQTYICNVNHKPSNTKVDKRVEPKSCDKTHTCPPCPAPEFERGPSVFLFPPKPKDTLMISRTPEVTCVVVDVSHEDPEVKFNWYVDGVEVHNAKTKPREEQYNSTYRVVSVLTVLHQDWLNGKEYKCKVSNKALPAPIEKTISKAKGQPREPQVYTLPPSREEMTKNQVSLTCLVKGFYPSDIAVEWESNGQPENNYKTTPPVLDSDGSFFLYSRLTVDKSRWQQGNVFSCSVMHEALHNHYTQKSLSLSPG
light: DIQMTQSPTSLSASVGDRVTITCRASQGISSWLTWYQQKPEKAPKSLIYAASSLQSGVPSRFSGSGSGTDFTLTISSLQPEDFATYYCQQYDSYPITFGQGTRLEIKRTVAAPSVFIFPPSDEQLKSGTASVVCLLNNFYPREAKVQWKVDNALQSGNSQESVTEQDSKDSTYSLSSTLTLSKADYEKHKVYACEVTHQGLSSPVTKSFNRGEC
notes: Monospecific, bivalent parental antibody; also called IgG1-huCD30-MDX060-FERR
EC50 (read off the curve) [6]: ~0.05 µg/mL | EC50 (read off the curve) [7]: ~0.09 µg/mL

B6: IgG1-CD30-HRS-3-FEAR (antibody, V domains shown)
VH: QVQLQQSGAELARPGASVKMSCKASGYTFTTYTIHWVRQRPGHDLEWIGYINPSSGYSDYNQNFKGKTTLTADKSSNTAYMQLNSLTSEDSAVYYCARRADYGNYEYTWFAYWGQGTTVTVSS
VL: DIVMTQSPKFMSTSVGDRVTVTCKASQNVGTNVAWFQQKPGQSPKVLIYSASYRYSGVPDRFTGSGSGTDFTLTISNVQSEDLAEYFCQQYHTYPLTFGGGTKLEINR
notes: as for B2
EC50 (read off the curve) [8]: ~0.06 µg/mL | EC50 (read off the curve) [9]: ~0.1 µg/mL
